Common to all, as to assay: EMSA
The target in data set [1] is ETV4 337-484 (Homo sapiens, UniProt P43268 337-484).
Data set [2] has as its target ETV4 FL K226ac (Homo sapiens, UniProt P43268 1-484).
Data set [3] has as its target ETV4 FL K260ac (Homo sapiens, UniProt P43268 1-484).
The target in data set [4] is ETV4 337-436 F428A/F432A (Homo sapiens, UniProt P43268 337-436, F428A;F432A).
Data set [5] concerns the target ETV4 FL E423K (Homo sapiens, UniProt P43268 1-484, E423K).
The target in data set [6] is ETV4 FL F428A/F432A (Homo sapiens, UniProt P43268 1-484, F428A;F432A).
Chain of ETV4 FL F428A/F432A (P43268 whole entry F428A/F432A): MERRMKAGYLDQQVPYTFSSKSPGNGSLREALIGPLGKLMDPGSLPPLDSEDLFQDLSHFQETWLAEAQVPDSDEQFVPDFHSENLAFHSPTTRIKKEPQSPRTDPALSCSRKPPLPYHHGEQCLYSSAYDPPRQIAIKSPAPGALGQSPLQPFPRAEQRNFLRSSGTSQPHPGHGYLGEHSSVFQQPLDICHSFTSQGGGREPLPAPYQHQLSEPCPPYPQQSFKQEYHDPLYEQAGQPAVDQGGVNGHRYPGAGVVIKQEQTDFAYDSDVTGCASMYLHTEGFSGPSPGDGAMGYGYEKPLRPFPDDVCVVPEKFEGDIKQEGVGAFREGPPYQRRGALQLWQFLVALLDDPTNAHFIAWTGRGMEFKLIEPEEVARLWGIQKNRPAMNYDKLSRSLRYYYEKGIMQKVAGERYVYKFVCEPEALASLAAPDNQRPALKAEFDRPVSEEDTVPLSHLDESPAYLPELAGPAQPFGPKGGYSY
Data set [7] deals with ETV4 337-436 E425K (Homo sapiens, UniProt P43268 337-436, E425K).
Data set [8] addresses ETV4 337-436 E423K (Homo sapiens, UniProt P43268 337-436, E423K).
In data set [9] the target is ETV4 FL E425K (Homo sapiens, UniProt P43268 1-484, E425K).
Chain of ETV4 FL E425K (P43268 whole entry E425K): as the sequence (P43268 whole entry F428A/F432A) above, with E425K, A428F, A432F counted along it
In data set [10] the target is T1, ETV4 337-436 E404K (Homo sapiens, UniProt P43268 337-436, E404K).
T1 sequence: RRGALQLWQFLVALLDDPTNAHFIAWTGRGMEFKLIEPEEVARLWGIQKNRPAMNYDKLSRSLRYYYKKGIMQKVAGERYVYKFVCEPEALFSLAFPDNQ

Data set [11] concerns the target ETV4 FL E404K (Homo sapiens, UniProt P43268 1-484, E404K).
The target of data set [12] is ETV4 FL L430A (Homo sapiens, UniProt P43268 1-484, L430A).
Chain of ETV4 FL L430A (P43268 whole entry L430A): as the sequence (P43268 whole entry F428A/F432A) above, with A428F, L430A, A432F counted along it
For data set [13], the target named is ETV4 FL I407A/L430A (Homo sapiens, UniProt P43268 1-484, I407A;L430A).
Chain of ETV4 FL I407A/L430A (P43268 whole entry I407A/L430A): as the sequence (P43268 whole entry F428A/F432A) above, with I407A, A428F, L430A, A432F counted along it
Data set [14] addresses ETV4 L430M (Homo sapiens, UniProt P43268 1-484, L430M).

Chain of ETV4 FL E423K (P43268 whole entry E423K): as the sequence (P43268 whole entry F428A/F432A) above, with E423K, A428F, A432F counted along it
Chain of ETV4 337-484 (P43268 337-484): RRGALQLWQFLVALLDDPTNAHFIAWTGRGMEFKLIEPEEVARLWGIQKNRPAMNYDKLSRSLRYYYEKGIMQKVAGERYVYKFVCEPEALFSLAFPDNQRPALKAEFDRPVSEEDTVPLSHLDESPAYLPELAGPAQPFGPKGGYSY
Chain of ETV4 FL K226ac (P43268 whole entry): as the sequence (P43268 whole entry F428A/F432A) above, with A428F, A432F counted along it
Chain of ETV4 FL K260ac (P43268 whole entry): as the sequence (P43268 whole entry F428A/F432A) above, with A428F, A432F counted along it
Chain of ETV4 FL E404K (P43268 whole entry E404K): as the sequence (P43268 whole entry F428A/F432A) above, with E404K, A428F, A432F counted along it
Chain of ETV4 L430M (P43268 whole entry L430M): as the sequence (P43268 whole entry F428A/F432A) above, with A428F, L430M, A432F counted along it

B1: 27-mer consensus ETS duplex (dsDNA)
DNA 1: TCGACGGCCAAGCCGGAAGTGAGTGCC
DNA 2: TCGAGGCACTCACTTCCGGCTTGGCCG
With B1, the values for the Kd in data set [1], in [2] and in data set [3] were 0.11 ± 0.02 nM, 0.3 ± 0.06 nM and 0.51 ± 0.03 nM, respectively. Also, the binding result in data set [4], in [5], in [6], in data set [7], in data set [8] and in data set [9] was “binds” each time. In addition, the binding result in [10], in [11], in [12], in data set [13] and in data set [14] was “binds” throughout.
